Reference: patent US20250011363A1, “OPTIMIZED SHORTENED PEPTIDE THAT BINDS TO ACETYLCHOLINE RECEPTOR, AND USE THEREOF” (SKINMED CO., LTD., priority 2021, published 2025)

Molecular target: acetylcholine receptor
Test: SPR, AchR on chip, peptide 10 uM

Binder | Binding affinity (RU)
RGLRK [5mer-237] | 77
RQYCR [5mer-234] | 62
KRQSR [5mer-531] | 65
KRISR [5mer-2] | 80
RRILK [5mer-302] | 70
KRRCK [5mer-236] | 81
KVRCR [5mer-241] | 51
KRLYR [5mer-239] | 61
KWRYR [5mer-240] | 51
KVLCR [5mer-230] | 67
KGYSK [5mer-235] | 70
KWYTR [5mer-232] | 71
RVQSR [5mer-529] | 84
RGYTK [5mer-242] | 64
RWRRR [5mer-530] | 80
KWIRK [5mer-301] | 64
RVYYK [5mer-233] | 84
KQICK [5mer-532] | 75
KGLLK [5mer-231] | 60
KGLTR [5mer-229] | 84
KQVLK [5mer-238] | 58

Other lines, results leading:

Binding affinity (RU) | Binder
84 | RLVYK [5mer-533]
78 | RLITK [5mer-536]
85 | KRYTR [5mer-542]
74 | RQFYR [5mer-540]
70 | RVVTR [5mer-539]
72 | KQQQR [5mer-538]
59 | RLRLR [5mer-537]
50 | RRQLR [5mer-534]
80 | KVFLK [5mer-541]
70 | KSLLR [5mer-535]
